{
  "source": "patent US20080176247A1",
  "about": "(INDUSTRIAL TECHNOLOGY RESEARCH INSTITUTE, published 2008)",
  "binders": {"B1": {"name": "erb_scFv (scFv, not shown: small tags and cut ends)", "scFv": "MAEVQLLESGGGLVQPGGSLRLSCAASGFTFSSYAMSWVRQAPGKGLEWVSDIGASGSATSYADSVKGRFTISRDNSKNTLYLQMNSLRAEDTAVYYCAKSTTTFDYWGQGTLVTVSSGGGGSGGGGSGGGGSTDIQMTQSPSSLSASVGDRVTITCRASQSISSYLNWYQQKPGKAPKLLIYDASALQSGVPSRFSGSGSGTDFTLTISSLQPEDFATYYCQQYADYPTTFGQGTKVEIKR", "notes": "Made in NS0 cells for the SPR work"}, "B2": {"name": "erb_scFv-Fc (Fc fusion)", "chain": "B1 scFv", "notes": "not shown: Fc region"}},
  "target": "T1, purified recombinant extracellular domain of EGF receptor (EGFR-ECD; Research Diagnostics, Inc.) (UniProt P00533 25-645, limits assumed)",
  "T1 construct": "extracellular domain; Bought protein",
  "test": "SPR (BIAcore X), EGFR-ECD immobilized on C1 chip, 1:1 Langmuir fit",
  "protocol": "Each antibody was injected at indicated concentrations and flowed over a surface chip with immobilized EGFR extracellular domain at a flow rate of 10 μl/min.\nThe surface was regenerated by injection of 5 μl of 10 mM glycine-HCl, pH 3.5. Sensorgrams were obtained at each concentration and were evaluated using the program, BIA Evaluation 3.2. Binding data were titled with a 1:1 Langmuir binding model to calculate the equilibrium dissociation constant, KD, which was defined as the ratio of dissociation rate (koff)/association rate (kₒₙ).",
  "data": [
    {"binder": "B1", "values": [
      {"measurement": "Kd", "result": 4960, "unit": "nM"},
      {"measurement": "koff", "result": 0.0741, "unit": "s⁻¹"},
      {"measurement": "kon", "result": 15000, "unit": "M⁻¹ s⁻¹"}
    ]},
    {"binder": "B2", "values": [
      {"measurement": "Kd", "result": 104, "unit": "nM"},
      {"measurement": "koff", "result": 0.00944, "unit": "s⁻¹"},
      {"measurement": "kon", "result": 90900, "unit": "M⁻¹ s⁻¹"}
    ]}
  ]
}
